From PMC6053440, “Cellular stress induces erythrocyte assembly on intravascular von Willebrand factor strings and promotes microangiopathy” (Scientific Reports, 2018)

Target: T1, von Willebrand factor, human plasmatic (human, UniProt P04275 764-2813)
T1 construct: von Willebrand factor, human, from plasma; multimeric glycoprotein; Multimer of disulfide-linked subunits; The results call the VWF of the ELISA recombinant, but the methods name plasmatic VWF; also called VWF; plasmatic VWF; source: bought: Calbiochem (human plasmatic VWF)
T1 sequence (P04275 764-2813): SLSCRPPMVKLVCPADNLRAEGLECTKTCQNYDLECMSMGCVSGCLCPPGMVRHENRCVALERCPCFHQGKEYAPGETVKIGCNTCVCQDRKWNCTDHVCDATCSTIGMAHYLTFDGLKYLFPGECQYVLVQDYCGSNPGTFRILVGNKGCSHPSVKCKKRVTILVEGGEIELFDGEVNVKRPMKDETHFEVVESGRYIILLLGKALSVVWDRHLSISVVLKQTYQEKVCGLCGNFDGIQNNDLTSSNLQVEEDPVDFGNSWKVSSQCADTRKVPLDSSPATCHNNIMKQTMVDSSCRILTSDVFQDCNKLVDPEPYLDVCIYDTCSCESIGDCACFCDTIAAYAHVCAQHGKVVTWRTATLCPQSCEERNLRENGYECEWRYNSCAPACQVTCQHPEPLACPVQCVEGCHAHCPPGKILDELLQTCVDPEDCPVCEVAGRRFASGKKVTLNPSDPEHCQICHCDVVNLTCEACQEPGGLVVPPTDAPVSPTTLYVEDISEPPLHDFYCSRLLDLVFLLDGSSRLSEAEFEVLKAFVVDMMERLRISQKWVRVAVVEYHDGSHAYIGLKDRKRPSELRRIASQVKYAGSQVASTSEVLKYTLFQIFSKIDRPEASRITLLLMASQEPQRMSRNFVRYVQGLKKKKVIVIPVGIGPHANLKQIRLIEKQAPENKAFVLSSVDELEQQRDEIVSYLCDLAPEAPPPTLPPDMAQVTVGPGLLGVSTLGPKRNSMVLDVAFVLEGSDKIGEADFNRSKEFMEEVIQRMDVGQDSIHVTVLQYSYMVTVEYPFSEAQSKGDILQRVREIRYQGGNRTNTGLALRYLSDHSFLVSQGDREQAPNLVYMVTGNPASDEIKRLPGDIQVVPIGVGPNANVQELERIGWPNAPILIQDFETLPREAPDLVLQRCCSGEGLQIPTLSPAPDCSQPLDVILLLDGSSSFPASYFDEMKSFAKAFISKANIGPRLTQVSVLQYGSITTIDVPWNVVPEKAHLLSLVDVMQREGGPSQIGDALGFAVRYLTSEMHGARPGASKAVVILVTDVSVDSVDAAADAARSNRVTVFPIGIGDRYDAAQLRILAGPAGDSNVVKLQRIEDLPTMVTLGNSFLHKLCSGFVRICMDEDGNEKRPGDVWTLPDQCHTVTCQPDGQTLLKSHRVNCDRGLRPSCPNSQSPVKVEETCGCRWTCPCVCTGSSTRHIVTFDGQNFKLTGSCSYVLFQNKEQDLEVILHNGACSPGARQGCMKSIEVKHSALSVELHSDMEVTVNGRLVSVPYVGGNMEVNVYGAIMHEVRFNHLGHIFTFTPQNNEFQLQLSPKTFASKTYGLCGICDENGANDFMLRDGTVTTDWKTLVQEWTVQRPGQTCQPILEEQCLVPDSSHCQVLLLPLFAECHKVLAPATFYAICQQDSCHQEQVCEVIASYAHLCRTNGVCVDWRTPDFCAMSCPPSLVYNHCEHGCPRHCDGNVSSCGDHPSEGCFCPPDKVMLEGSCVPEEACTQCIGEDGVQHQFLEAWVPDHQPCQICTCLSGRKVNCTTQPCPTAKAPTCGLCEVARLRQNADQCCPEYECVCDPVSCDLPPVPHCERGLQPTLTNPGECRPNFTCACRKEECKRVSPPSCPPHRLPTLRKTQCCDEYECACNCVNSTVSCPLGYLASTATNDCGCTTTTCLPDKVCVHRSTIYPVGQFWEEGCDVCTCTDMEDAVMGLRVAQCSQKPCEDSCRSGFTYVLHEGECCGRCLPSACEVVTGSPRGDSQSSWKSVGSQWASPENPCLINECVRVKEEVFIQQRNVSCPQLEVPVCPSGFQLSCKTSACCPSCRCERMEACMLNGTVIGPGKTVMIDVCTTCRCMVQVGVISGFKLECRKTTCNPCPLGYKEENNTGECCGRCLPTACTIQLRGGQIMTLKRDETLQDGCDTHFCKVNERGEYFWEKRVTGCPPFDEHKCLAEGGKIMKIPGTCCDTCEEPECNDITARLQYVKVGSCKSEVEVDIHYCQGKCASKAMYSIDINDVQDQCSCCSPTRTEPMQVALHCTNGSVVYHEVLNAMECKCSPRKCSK
Assay: ELISA; 96-well plates coated with 20 µg/ml AV; human plasmatic VWF added at 0.15, 0.5, 1.0 and 1.5 µg/ml; bound VWF detected colorimetrically with peroxidase-labelled anti-human VWF antibody; washing with calcium-free buffer
Details: both partners purified

B1: Annexin V (natural protein, human, UniProt P08758 1-320, looked up)
chain: MAQVLRGTVTDFPGFDERADAETLRKAMKGLGTDEESILTLLTSRSNAQRQEISAAFKTLFGRDLLDDLKSELTGKFEKLIVALMKPSRLYDAYELKHALKGAGTNEKVLTEIIASRTPEELRAIKQVYEEEYGSSLEDDVVGDTSGYYQRMLVVLLQANRDPDAGIDEAQVEQDAQALFQAGELKWGTDEEKFITIFGTRSVSHLRKVFDKYMTISGFQIEETIDRETSGNLEQLLLAVVKSIRSIPAYLAETLYYAMKGAGTDDHTLIRVMVSRSEIDLFNIRKEFRKNFATSLYSMIKGDTSGDYKKALLLLCGEDD
notes: Annexin V (annexin A5), human, purified from placenta; The methods of the ELISA name AV purified from human placenta (Sigma-Aldrich), but the results call it recombinant AV; In the flow adhesion experiments purified recombinant AV (BD Biosciences, 10 µg/ml) was added, and the erythrocytes' own AV was also present; also called AV; source: bought: Sigma-Aldrich, purified AV from human placenta
  binding result: binds
